Results from publication PMC9100651 (2022).

Biological target: GABARAP (Homo sapiens, UniProt O95166)
Test: MST, SPR

Sequence of GABARAP (O95166 1-116): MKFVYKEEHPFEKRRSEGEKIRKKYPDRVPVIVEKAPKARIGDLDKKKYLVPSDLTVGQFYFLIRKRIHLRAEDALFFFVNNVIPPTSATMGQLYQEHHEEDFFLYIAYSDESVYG

Kd: ~3 µM
Binder: DATYTWEHLAWP [K1 peptide]
